Values of other authors in paper PMC3428507.

Target: Pf1 MBD (Homo sapiens) (UniProt Q96QT6)
Sequence (Q96QT6 200-241): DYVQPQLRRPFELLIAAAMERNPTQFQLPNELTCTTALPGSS

Sequence of MRG15 MRG (Q9UBU8 188-362): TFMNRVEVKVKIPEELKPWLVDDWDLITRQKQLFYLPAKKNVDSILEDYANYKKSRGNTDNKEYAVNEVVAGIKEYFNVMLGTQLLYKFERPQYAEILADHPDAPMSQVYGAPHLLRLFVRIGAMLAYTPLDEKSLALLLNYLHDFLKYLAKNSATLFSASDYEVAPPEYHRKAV

Kd: 15 nM
Substance: MRG15 MRG (from UniProt Q9UBU8)
